Publication PMC4258549
Where two headings read alike, the source gives them in different places.

Columns and labels:
Assay in all cases: AlphaScreen or HTRF
biotinylated C4b (human) [1] = target: biotinylated C4b (human)
biotinylated C4b (human) [2] = target: biotinylated C4b (human); remark: listed apart in the source
[3] = target: myc-tagged Eap (Staphylococcus aureus) (UniProt Q99QS1)
myc-tagged Eap (Staphylococcus aureus), sequence (Q99QS1 31-476): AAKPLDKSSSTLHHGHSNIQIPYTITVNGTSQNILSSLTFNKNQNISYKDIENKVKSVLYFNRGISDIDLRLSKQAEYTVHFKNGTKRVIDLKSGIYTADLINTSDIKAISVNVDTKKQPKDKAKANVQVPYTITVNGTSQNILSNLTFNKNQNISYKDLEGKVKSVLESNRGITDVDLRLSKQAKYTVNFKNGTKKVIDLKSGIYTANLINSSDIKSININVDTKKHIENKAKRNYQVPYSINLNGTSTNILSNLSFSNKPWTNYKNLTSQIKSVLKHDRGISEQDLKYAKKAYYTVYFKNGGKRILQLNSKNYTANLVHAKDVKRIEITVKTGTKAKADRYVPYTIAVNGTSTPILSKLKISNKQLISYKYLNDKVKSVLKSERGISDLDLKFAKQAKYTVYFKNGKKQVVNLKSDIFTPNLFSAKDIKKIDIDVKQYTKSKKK

C4b-binding protein, sequence (P04003 49-597): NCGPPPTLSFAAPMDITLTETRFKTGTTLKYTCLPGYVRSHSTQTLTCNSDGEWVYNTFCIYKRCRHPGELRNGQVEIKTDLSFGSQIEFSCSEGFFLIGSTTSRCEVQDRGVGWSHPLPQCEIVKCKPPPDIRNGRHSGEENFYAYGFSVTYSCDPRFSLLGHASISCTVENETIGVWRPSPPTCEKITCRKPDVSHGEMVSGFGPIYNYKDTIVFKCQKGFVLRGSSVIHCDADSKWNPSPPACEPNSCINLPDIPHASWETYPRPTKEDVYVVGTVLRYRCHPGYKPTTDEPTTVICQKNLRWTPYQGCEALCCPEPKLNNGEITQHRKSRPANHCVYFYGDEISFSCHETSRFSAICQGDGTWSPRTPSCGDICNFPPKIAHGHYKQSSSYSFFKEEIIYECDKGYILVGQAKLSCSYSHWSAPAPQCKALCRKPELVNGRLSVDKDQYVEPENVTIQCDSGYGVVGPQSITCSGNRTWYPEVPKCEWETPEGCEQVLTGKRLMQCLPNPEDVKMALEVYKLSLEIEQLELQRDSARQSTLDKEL
C4b-binding protein, sequence (P20851 18-252): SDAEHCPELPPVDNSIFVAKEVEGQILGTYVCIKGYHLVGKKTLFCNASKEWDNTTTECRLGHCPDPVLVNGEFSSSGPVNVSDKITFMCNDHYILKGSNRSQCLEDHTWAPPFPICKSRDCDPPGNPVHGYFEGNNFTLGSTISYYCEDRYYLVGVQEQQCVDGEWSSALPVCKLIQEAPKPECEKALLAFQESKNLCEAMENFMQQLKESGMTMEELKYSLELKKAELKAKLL

Substance	IC50 (biotinylated C4b (human) [1]) [µM]	IC50 (biotinylated C4b (human) [2]) [µM]	Kd [3] [µM]
C2b fragment of complement component C2, recombinant (domain or fragment)	3.5	–	–
C4b-binding protein (from UniProt P04003 49-597; P20851 18-252) (complex)	0.021	0.013	–
C4c (complex)	–	–	0.138
native complement component C4 (complex)	–	–	0.045
